This note sets out measurements from patent publication US20240207421A1, “NERVE TARGETING PEPTIDES AND METHODS OF USE” (ALUME BIOSCIENCES, INC., priority 2020, published 2024).

The target of the first assay is Human Myelin Basic Protein (Homo sapiens, UniProt P02686). Briefly: phage display, NGS count.
Human Myelin Basic Protein, sequence (P02686 135-304 limits assumed): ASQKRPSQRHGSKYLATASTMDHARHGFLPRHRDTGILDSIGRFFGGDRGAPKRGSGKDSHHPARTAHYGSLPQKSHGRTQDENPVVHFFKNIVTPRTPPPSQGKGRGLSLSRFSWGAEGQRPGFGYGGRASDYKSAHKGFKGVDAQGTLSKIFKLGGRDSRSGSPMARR
The substance THKHMMT (peptide) gave a Count of 6. The same measure, in the same setting: in the case of YVNRVKQ (peptide) it was 6. Same read-out and setting: in the case of GPRVTPH (peptide) it was 6. Take AVRQTTM (peptide): the Count was determined as 7. The substance SSGMLSK (peptide) registered a Count of 7. ASNTSKG (peptide) yielded a Count of 7. As for HPTGTPT (peptide), the Count came out at 7. The substance HRTHLHQ (peptide) gave a Count of 6. The same measure, in the same setting: the figure for AILTRPP (peptide) is 7.

SIQTSAM (peptide) yielded a Count of 6. In turn, ESKSPRE (peptide) had a Count of 6. Same read-out and setting: in the case of HPDTLPQ (peptide) it was 7. Same read-out and setting: the figure for YPTYLSY (peptide) is 6. Same read-out and setting: in the case of TPVLWLP (peptide) it was 6; in that of TSPPLAH (peptide), 8. In the case of QQAHLQS (peptide), the Count was found to be 8. As to TLLTALT (peptide), the Count is 7. Same read-out and setting: in the case of HTGLRSL (peptide) it was 7; in that of WVPDRSL (peptide), 6. As to WSLPLLS (peptide), the Count was found to be 7. Consider MPLLELP (peptide), for which the Count came out at 7. HYSPNVM (peptide) returned a Count of 9. For ANLSRSV (peptide), the Count was 9. In turn, YATATPS (peptide) had a Count of 8. For HFLRPSD (peptide), the Count was determined as 7.

In the case of TTTQGHP (peptide), the Count is 6. On to LPPQISR (peptide), for which the Count came out at 8.

In the case of HLLKTHS (peptide), the Count worked out at 7. The same measure, in the same setting: the figure for IPIPYRT (peptide) is 6; for SLWTHRT (peptide) it is 6; for NGVSSSL (peptide) it is 6. FDLLARK (peptide) returned a Count of 6.

In the case of NPTDTNK (peptide), the Count is 8.

In the case of ALRDTRV (peptide), the Count worked out at 6.

Regarding LELHQNV (peptide), the Count is 6. Same read-out and setting: in the case of ALGTRPL (peptide) it was 7. IGTRWHQ (peptide) had a Count of 6. TGNLRLY (peptide) came in with a Count of 9. DVRIWTL (peptide) returned a Count of 6. INFPFAV (peptide) yielded a Count of 6. On the same count and under the same terms, in the case of FLNQAPT (peptide) it was 7; in that of SPKPDIP (peptide), 6; in that of FKLPWAS (peptide), 7. For the substance NMYPRVT (peptide), the Count stood at 7. With AAGQRSF (peptide), the Count is 7. Still for that read-out and setting: the figure for TQMTMDS (peptide) is 10. Same read-out and setting: in the case of GPITHAI (peptide) it was 7. HAHWARL (peptide) returned a Count of 6. Turning to SKPHASH (peptide), the Count was 6.

The substance GQWWKML (peptide) registered a Count of 6. The same measure, in the same setting: in the case of RSRKHRP (peptide) it was 6; in that of HMAGVNQ (peptide), 7; in that of TPGRATL (peptide), 6.

For MNSPLAQ (peptide), the Count was 6.

For TSRLVST (peptide), the Count amounted to 8. The same measure, in the same setting: in the case of NLLQGVM (peptide) it was 7; in that of SNAHTLP (peptide), 6. With SVEYGQL (peptide), the Count came out at 9.

GSPYGWG (peptide) came in with a Count of 6.

LMLPQLE (peptide) gave a Count of 6. On the same count and under the same terms, in the case of FQLSYET (peptide) it was 6; in that of KMSLAPP (peptide), 6.

The substance QGAYVRP (peptide) showed a Count of 6. The substance SYTLSRS (peptide) yielded a Count of 7. Same read-out and setting: the figure for HSGPLLP (peptide) is 6; for HSSATMS (peptide) it is 6; for TRIPILL (peptide) it is 6. As to KYRHGAE (peptide), the Count came out at 7. The same measure, in the same setting: the figure for RTTDWWT (peptide) is 6; for HFTFFPI (peptide) it is 6; for QNSYLSN (peptide) it is 8.

Turning to QPIDSTS (peptide), the Count was determined as 7. On the same count and under the same terms, the figure for TGPSSAV (peptide) is 6; for ALYNQMT (peptide) it is 6. For the substance SKLAGFP (peptide), the Count came to 6. Still for that read-out and setting: in the case of TPVRLNT (peptide) it was 6; in that of AIPPRKL (peptide), 6. Consider WTYHPTT (peptide), for which the Count came to 6. Same read-out and setting: the figure for NTPKVLA (peptide) is 10; for NTSLSFK (peptide) it is 8; for YSSRLND (peptide) it is 6. On the same count and under the same terms, in the case of NFAQHMQ (peptide) it was 9; in that of AGSLLSL (peptide), 6. In turn, ESPYPHS (peptide) came in with a Count of 7.

Regarding SVGLPTK (peptide), the Count was 6. Same read-out and setting: in the case of NLKLWTR (peptide) it was 7; in that of SEPGTVR (peptide), 7; in that of SWFESHN (peptide), 8.

Regarding SSMRYNS (peptide), the Count was determined as 6. Consider DVVKDVI (peptide), for which the Count is 7. Take FSARTNT (peptide): the Count stood at 9.

Consider MQRLGAD (peptide), for which the Count came out at 6. Still for that read-out and setting: the figure for HQPLFPR (peptide) is 6. HFYGPGP (peptide) displayed a Count of 9.

Consider SGPFPLV (peptide), for which the Count came to 6.

The substance WDLRHSK (peptide) showed a Count of 6. On the same count and under the same terms, in the case of SLKTTNP (peptide) it was 6; in that of SRPTRVP (peptide), 9; in that of SLRSVGA (peptide), 7. Still for that read-out and setting: the figure for DSYLLSA (peptide) is 8; for KGQPLFR (peptide) it is 7. On the same count and under the same terms, in the case of KVHHLAR (peptide) it was 6; in that of IILPSAQ (peptide), 8. Take SGNLKKA (peptide): the Count came out at 7. The same measure, in the same setting: in the case of TIRVAHT (peptide) it was 6; in that of YTASPRW (peptide), 6; in that of ARVPNPL (peptide), 6.

Another assay deals with Human Myelin PLP (human) (UniProt P60201). The assay can be described thus: phage display, NGS count.
Human Myelin PLP (human), sequence (P60201 2-277 limits assumed): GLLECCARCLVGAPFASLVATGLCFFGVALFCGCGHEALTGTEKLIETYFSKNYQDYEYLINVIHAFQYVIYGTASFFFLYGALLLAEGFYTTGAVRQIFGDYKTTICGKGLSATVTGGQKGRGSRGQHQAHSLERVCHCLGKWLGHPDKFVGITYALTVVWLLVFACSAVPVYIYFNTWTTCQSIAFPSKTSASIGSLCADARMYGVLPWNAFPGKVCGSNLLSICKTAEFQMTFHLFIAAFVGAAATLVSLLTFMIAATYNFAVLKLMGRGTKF
GLWGPSL (peptide): the Count is 26. Same read-out and setting: the figure for VFPERRV (peptide) is 28.

With KGVIPAT (peptide), the Count turned out to be 27. NIPSSIL (peptide) came in with a Count of 33. The substance LPHRLNP (peptide) came in with a Count of 27. Still for that read-out and setting: the figure for VTPNKAR (peptide) is 26. On the same count and under the same terms, in the case of ARFVPLT (peptide) it was 30. Same read-out and setting: in the case of TKITPHR (peptide) it was 29; in that of LNGISAL (peptide), 32.
